In article PMC3352088, “Structure and function of the transketolase from Mycobacterium tuberculosis and comparison with the human enzyme” (Open Biology, 2012):

Key:
[1] = test system: O=C(CO)[C@@H](O)[C@H](O)COP(=O)(O)O; experiment: purified protein; details: TPP, Mg2+ donor substrate; substrate cleft
[2] = test system: O=C(CO)[C@@H](O)[C@H](O)[C@H](O)COP(=O)(O)O; experiment: purified protein; details: TPP, Mg2+ donor substrate; substrate cleft
[3] = test system: O=C[C@H](O)[C@H](O)[C@H](O)COP(=O)(O)O; experiment: purified protein; details: TPP, Mg2+ acceptor substrate; substrate cleft
[4] = target: the molecule itself; experiment: crystal structure; TBTKT with TPP and Mg2+, space group P1, four molecules (two dimers) in the asymmetric unit, 2.5 Å; crystals from 0.1 M ammonium acetate, 0.1 M bis-tris pH 5.5, 17% w/v PEG 10 000, 22°C

Molecule | Km [1] [µM] | Km [2] [µM] | Km [3] [µM] | stoichiometry N [4]
transketolase (TBTKT) (Mycobacterium tuberculosis H37Rv) | 350 ± 120 | 630 ± 90 | 820 ± 120 | –
transketolase from Mycobacterium tuberculosis (TBTKT) (enzyme, also called Rv1449; rv1449c gene product) MTTLEEISALTRPRHPDYWTEIDSAAVDTIRVLAADAVQKVGNGHPGTAMSLAPLAYTLFQRTMRHDPSDTHWLGRDRFVLSAGHSSLTLYIQLYLGGFGLELSDIESLRTWGSKTPGHPEFRHTPGVEITTGPLGQGLASAVGMAMASRYERGLFDPDAEPGASPFDHYIYVIASDGDIEEGVTSEASSLAAVQQLGNLIVFYDRNQISIEDDTNIALCEDTAARYRAYGWHVQEVEGGENVVGIEEAIANAQAVTDRPSFIALRTVIGYPAPNLMDTGKAHGAALGDDEVAAVKKIVGFDPDKTFQVREDVLTHTRGLVARGKQAHERWQLEFDAWARREPERKALLDRLLAQKLPDGWDADLPHWEPGSKALATRAASGAVLSALGPKLPELWGGSADLAGSNNTTIKGADSFGPPSISTKEYTAHWYGRTLHFGVREHAMGAILSGIVLHGPTRAYGGTFLQFSDYMRPAVRLAALMDIDTIYVWTHDSIGLGEDGPTHQPIEHLSALRAIPRLSVVRPADANETAYAWRTILARRNGSGPVGLILTRQGVPVLDGTDAEGVARGGYVLSDAGGLQPGEEPDVILIATGSEVQLAVAAQTLLADNDILARVVSMPCLEWFEAQPYEYRDAVLPPTVSARVAVEAGVAQCWHQLVGDTGEIVSIEHYGESADHKTLFREYGFTAEAVAAAAERALDN | – | – | – | 2
